# Measurements as given in paper PMC9308819 (Nature Communications, 2022).
# B1: Rep15, full length (natural N101D variant) [human] / Rab3A, purified, nucleotide-loaded [human] (parent complex)
# chain 1: MGQKASQQLALKDSKEVPVVCEVVSEAIVHAAQKLKEYLGFEYPPSKLCPAANTLNEIFLIHFITFCQEKGVDEWLTTTKMTKHQAFLFGADWIWTFWGSDKQIKLQLAVQTLQMSSPPPVESKPCDLSNPESRVEESSWKKSRFDKLEEFCNLIGEDCLGLFIIFGMPGKPKDIRGVVLDSVKSQMVRSHLPGGKAVAQFVLETEDCVFIKELLRNCLSKKDGLREVGKVYISIL
# chain 2: MASATDSRYGQKESSDQNFDYMFKILIIGNSSVGKTSFLFRYADDSFTPAFVSTVGIDFKVKTIYRNDKRIKLQIWDTAGQERYRTITTAYYRGAMGFILMYDITNEESFNAVQDWSTQIKTYSWDNAQVLLVGNKCDMEDERVVSSERGRQLADHLGFEFFEASAKDNINVKQTFERLVDVICEKMSESLDTADPAVTGAKQGPQLSDQQVPPHQDCAC
# Variants of: B1
# Experiment: ITC
row,Variant,Kd
1,chain 1 MGQKASQQLALKDSKEVPVVCEVVSEAIVHAAQKLKEYLGFEYPPSKLCPAANTLNEIFLIHFITFCQEKGVDEWLTTTKMTKHQAFLFGADWIWTFWGSDKQIKLQLAVQTLQMSSPPPVESKPCDLSNPESRAEESSWKKSRFDKLEEFCNLIGEDCLGLFIIFGMPGKPKDIRGVVLDSVKSQMVRSHLPGGKAVAQFVLETEDCVFIKELLRNCLSKKDGLREVGKVYISIL [chain 1 V135A],510 nM

# Variants of: B1
# Experiment: ITC
# Remark: another data set of the same source
row,Variant,Kd
1,chain 1 MGQKASQQLALKDSKEVPVVCEVVSEAIVHAAQKLKEYLGFEYPPSKLCPAANTLNEIFLIHFITFCQEKGVDEWLTTTKMTKAQAFLFGADWIWTFWGSDKQIKLQLAVQTLQMSSPPPVESKPCDLSNPESRVEESSWKKSRFDKLEEFCNLIGEDCLGLFIIFGMPGKPKDIRGVVLDSVKSQMVRSHLPGGKAVAQFVLETEDCVFIKELLRNCLSKKDGLREVGKVYISIL [chain 1 H84A],450 nM
